From patent publication US20200199204A1 (UNITED STATES OF AMERICA AS REPRESENTED BY THE SECRETARY …, published 2020)

Columns and labels:
Test in all cases: cell-based or functional assay
HIV-1 Env of UG037.8 = HIV-1 Env of UG037.8 (HIV-1)
HIV-1 Env of CNE3 = HIV-1 Env of CNE3 (HIV-1)
HIV-1 Env of 6535.3 = HIV-1 Env of 6535.3 (HIV-1)
HIV-1 Env of QH0692.42 = HIV-1 Env of QH0692.42 (HIV-1)
HIV-1 Env of ZM197.7 = HIV-1 Env of ZM197.7 (HIV-1)
HIV-1 Env of TH976.17 = HIV-1 Env of TH976.17 (HIV-1)
HIV-1 Env of ZM109.4 = HIV-1 Env of ZM109.4 (HIV-1)
HIV-1 Env of TRO.11 = HIV-1 Env of TRO.11 (HIV-1)
HIV-1 Env of SC422.8 = HIV-1 Env of SC422.8 (HIV-1)
HIV-1 Env of C1080.c3 = HIV-1 Env of C1080.c3 (HIV-1)
HIV-1 Env of Q842.d12 = HIV-1 Env of Q842.d12 (HIV-1)
HIV-1 Env of DU156.12 = HIV-1 Env of DU156.12 (HIV-1)
HIV-1 Env of CAP45.G3 = HIV-1 Env of CAP45.G3 (HIV-1)
HIV-1 Env of Q769.d22 = HIV-1 Env of Q769.d22 (HIV-1)
HIV-1 Env of 0260.v5.c36 = HIV-1 Env of 0260.v5.c36 (HIV-1)
HIV-1 Env of RHPA.7 = HIV-1 Env of RHPA.7 (HIV-1)
HIV-1 Env of CAP210.E8 = HIV-1 Env of CAP210.E8 (HIV-1)
HIV-1 Env of WITO.33 = HIV-1 Env of WITO.33 (HIV-1)
HIV-1 Env of DU422.01 = HIV-1 Env of DU422.01 (HIV-1)
HIV-1 Env of CM244.ec1 = HIV-1 Env of CM244.ec1 (HIV-1)
HIV-1 Env of Q259.d2.17 = HIV-1 Env of Q259.d2.17 (HIV-1)
HIV-1 Env of TRJO.58 = HIV-1 Env of TRJO.58 (HIV-1)
HIV-1 Env of RW020.2 = HIV-1 Env of RW020.2 (HIV-1)
HIV-1 Env of MB201 = HIV-1 Env of MB201 (HIV-1)
HIV-1 Env of ZM214.15 = HIV-1 Env of ZM214.15 (HIV-1)
HIV-1 Env of 96ZM651.02 = HIV-1 Env of 96ZM651.02 (HIV-1)
HIV-1 Env of MB539.2B7 = HIV-1 Env of MB539.2B7 (HIV-1)
HIV-1 Env of THRO.18 = HIV-1 Env of THRO.18 (HIV-1)
HIV-1 Env of Q23.17 = HIV-1 Env of Q23.17 (HIV-1)
HIV-1 Env of CAAN.A2 = HIV-1 Env of CAAN.A2 (HIV-1)
HIV-1 Env of ZM135.10a = HIV-1 Env of ZM135.10a (HIV-1)
HIV-1 Env of PVO.04 = HIV-1 Env of PVO.04 (HIV-1)
HIV-1 Env of BG505.w6m = HIV-1 Env of BG505.w6m (HIV-1)
HIV-1 Env of CAP256.SU = HIV-1 Env of CAP256.SU (HIV-1)
HIV-1 Env of ZM249.1 = HIV-1 Env of ZM249.1 (HIV-1)
HIV-1 Env of AC10.29 = HIV-1 Env of AC10.29 (HIV-1)
HIV-1 Env of 6405.v4.c34 = HIV-1 Env of 6405.v4.c34 (HIV-1)
HIV-1 Env of KER2008.12 = HIV-1 Env of KER2008.12 (HIV-1)
HIV-1 Env of REJO.67 = HIV-1 Env of REJO.67 (HIV-1)
HIV-1 Env of DU172.17 = HIV-1 Env of DU172.17 (HIV-1)
HIV-1 Env of KER2018.11 = HIV-1 Env of KER2018.11 (HIV-1)
HIV-1 Env of CAP256.PI = HIV-1 Env of CAP256.PI (HIV-1)
HIV-1 Env of Q168.a2 = HIV-1 Env of Q168.a2 (HIV-1)
HIV-1 Env of ZM53.12 = HIV-1 Env of ZM53.12 (HIV-1)
HIV-1 Env of ZM233.6 = HIV-1 Env of ZM233.6 (HIV-1)
HIV-1 Env of 3016.V5.c36 = HIV-1 Env of 3016.V5.c36 (HIV-1)
HIV-1 Env of Q461.e2 = HIV-1 Env of Q461.e2 (HIV-1)
HIV-1 Env of CAP244.D3 = HIV-1 Env of CAP244.D3 (HIV-1)

B1: CAP256-VRC26.26 (antibody, V domains shown)
VH: EVQLVESGGGIVQPGRSLTLSCVASQFAFSHYGMHWVRQAPGKGLEWVASISRDETKKYHGDSVWDRFSISRDNSKNTLFLQMNSLRAEDTALYFCVRDQREDECEEWWSDYYDFGKELPCRKFRGLGLAGIFDVWGHGTMVIVSS
VL: QSALTQPPSVSAAPGQKVSISCSGNNSNIGNNFISWFQQFPGTAPKPLIYETYKRHSGIPDRFSGSKSGTSATLAITGLQTGDEADYYCATWGVRQGVGALFGTGTKVTVLG
In the case of B1, the “IC50 (neutralization, TZM-bl)” value (HIV-1 Env of UG037.8) is reported as over 50 µg/mL, the “IC50 (neutralization, TZM-bl)” value (HIV-1 Env of CNE3) is reported as over 50 µg/mL and the “IC50 (neutralization, TZM-bl)” value (HIV-1 Env of 6535.3) is reported as over 50 µg/mL. For the same binder, the “IC50 (neutralization, TZM-bl)” value (HIV-1 Env of QH0692.42) was over 50 µg/mL, the “IC50 (neutralization, TZM-bl)” value (HIV-1 Env of ZM197.7) was 0.011 µg/mL and the “IC50 (neutralization, TZM-bl)” value (HIV-1 Env of TH976.17) was over 50 µg/mL. The “IC50 (neutralization, TZM-bl)” value (HIV-1 Env of ZM109.4) was 0.025 µg/mL, the “IC50 (neutralization, TZM-bl)” value (HIV-1 Env of TRO.11) was over 50 µg/mL and the “IC50 (neutralization, TZM-bl)” value (HIV-1 Env of SC422.8) was 1.74 µg/mL. The “IC50 (neutralization, TZM-bl)” value (HIV-1 Env of C1080.c3) was 0.016 µg/mL, the “IC50 (neutralization, TZM-bl)” value (HIV-1 Env of Q842.d12) was 17.1 µg/mL and the “IC50 (neutralization, TZM-bl)” value (HIV-1 Env of DU156.12) was 0.013 µg/mL. For the same binder, the “IC50 (neutralization, TZM-bl)” value (HIV-1 Env of CAP45.G3) was 0.08 µg/mL, the “IC50 (neutralization, TZM-bl)” value (HIV-1 Env of Q769.d22) was over 50 µg/mL and the “IC50 (neutralization, TZM-bl)” value (HIV-1 Env of 0260.v5.c36) was 0.78 µg/mL. The “IC50 (neutralization, TZM-bl)” value (HIV-1 Env of RHPA.7) was over 50 µg/mL, the “IC50 (neutralization, TZM-bl)” value (HIV-1 Env of CAP210.E8) was 0.007 µg/mL and the “IC50 (neutralization, TZM-bl)” value (HIV-1 Env of WITO.33) was over 50 µg/mL. For the same binder, the “IC50 (neutralization, TZM-bl)” value (HIV-1 Env of DU422.01) was 0.08 µg/mL, the “IC50 (neutralization, TZM-bl)” value (HIV-1 Env of CM244.ec1) was 0.047 µg/mL and the “IC50 (neutralization, TZM-bl)” value (HIV-1 Env of Q259.d2.17) was 0.011 µg/mL. For the same binder, the “IC50 (neutralization, TZM-bl)” value (HIV-1 Env of TRJO.58) was over 50 µg/mL, the “IC50 (neutralization, TZM-bl)” value (HIV-1 Env of RW020.2) was over 50 µg/mL and the “IC50 (neutralization, TZM-bl)” value (HIV-1 Env of MB201) was over 50 µg/mL. The “IC50 (neutralization, TZM-bl)” value (HIV-1 Env of ZM214.15) was 14.1 µg/mL, the “IC50 (neutralization, TZM-bl)” value (HIV-1 Env of 96ZM651.02) was 0.111 µg/mL and the “IC50 (neutralization, TZM-bl)” value (HIV-1 Env of MB539.2B7) was 0.634 µg/mL. For the same binder, the “IC50 (neutralization, TZM-bl)” value (HIV-1 Env of THRO.18) was 0.667 µg/mL, the “IC50 (neutralization, TZM-bl)” value (HIV-1 Env of Q23.17) was over 50 µg/mL and the “IC50 (neutralization, TZM-bl)” value (HIV-1 Env of CAAN.A2) was over 50 µg/mL. The “IC50 (neutralization, TZM-bl)” value (HIV-1 Env of ZM135.10a) was over 50 µg/mL, the “IC50 (neutralization, TZM-bl)” value (HIV-1 Env of PVO.04) was 0.562 µg/mL and the “IC50 (neutralization, TZM-bl)” value (HIV-1 Env of BG505.w6m) was 0.066 µg/mL. For the same binder, the “IC50 (neutralization, TZM-bl)” value (HIV-1 Env of CAP256.SU) was 0.003 µg/mL, the “IC50 (neutralization, TZM-bl)” value (HIV-1 Env of ZM249.1) was 0.023 µg/mL and the “IC50 (neutralization, TZM-bl)” value (HIV-1 Env of AC10.29) was over 50 µg/mL. The “IC50 (neutralization, TZM-bl)” value (HIV-1 Env of 6405.v4.c34) was over 50 µg/mL, the “IC50 (neutralization, TZM-bl)” value (HIV-1 Env of KER2008.12) was over 50 µg/mL and the “IC50 (neutralization, TZM-bl)” value (HIV-1 Env of REJO.67) was over 50 µg/mL. For the same binder, the “IC50 (neutralization, TZM-bl)” value (HIV-1 Env of DU172.17) was 0.5 µg/mL, the “IC50 (neutralization, TZM-bl)” value (HIV-1 Env of KER2018.11) was 0.001 µg/mL and the “IC50 (neutralization, TZM-bl)” value (HIV-1 Env of CAP256.PI) was over 50 µg/mL. The “IC50 (neutralization, TZM-bl)” value (HIV-1 Env of Q168.a2) was 0.005 µg/mL, the “IC50 (neutralization, TZM-bl)” value (HIV-1 Env of ZM53.12) was 0.001 µg/mL and the “IC50 (neutralization, TZM-bl)” value (HIV-1 Env of ZM233.6) was 0.001 µg/mL. For the same binder, the “IC50 (neutralization, TZM-bl)” value (HIV-1 Env of 3016.V5.c36) was 0.022 µg/mL, the “IC50 (neutralization, TZM-bl)” value (HIV-1 Env of Q461.e2) was 0.024 µg/mL and the “IC50 (neutralization, TZM-bl)” value (HIV-1 Env of CAP244.D3) was 36.6 µg/mL.
